Results taken from paper PMC12329526, “Molecular arrangements that accompany binding of rice xylanase inhibitor protein OsXIP and the Rhizopus oryzae GH11 xylanase RXyn2” (The Journal of Biological Chemistry, 2025).

Tested on: T1, O=[N+]([O-])c1ccc(O[C@@H]2OC[C@@H](O[C@@H]3OC[C@@H](O)[C@H](O)[C@H]3O)[C@H](O)[C@H]2O)cc1
T1 construct: mature form Leu20-Ser216 (197 residues), signal peptide removed, N-terminal His6 tag (pRham N-His), E. coli 10G, synthetic codon-optimised gene, monomer, 22,340 Da
Test: purified protein
Assay type: biochemical, Rhizopus arrhizus
Details: 20 mM sodium acetate, pH 5.0, 37 °C, free enzyme without OsXIP

RXyn2 (Rhizopus arrhizus), sequence (chain, as listed by the source): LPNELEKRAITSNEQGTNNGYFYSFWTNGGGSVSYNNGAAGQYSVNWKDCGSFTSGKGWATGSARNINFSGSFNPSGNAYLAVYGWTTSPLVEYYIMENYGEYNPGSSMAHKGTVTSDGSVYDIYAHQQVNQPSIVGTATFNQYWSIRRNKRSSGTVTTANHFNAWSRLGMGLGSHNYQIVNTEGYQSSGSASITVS

RXyn2 (Rhizopus arrhizus) was tested, and the Km was 5.05 ± 0.29 mM.
